Numbering of substitutions follows the chain as printed. Names may count otherwise.
B1: F10 scFv (wild type) (scFv, V domains shown)
VH: QVQLVQSGAEVKKPGSSVKVSCTSSEVTFSSFAISWVRQAPGQGLEWLGGISPMFGTPNYAQKFQGRVTITADQSTRTAYMDLRSLRSEDTAVYYCARSPSYICSGGTCVFDHWGQGTLVTVSS
VL: QPGLTQPPSVSKGLRQTATLTCTGNSNNVGNQGAAWLQQHQGHPPKLLSYRNNDRPSGISERFSASRSGNTASLTITGLQPEDEADYYCSTWDSSLSAVVFGGGTKLTVL
B2: F10 Y98A scFv (scFv, V domains shown)
VH: B1 VH with Y102A
VL: B1 VL
B3: CR6261 Y98A scFv (scFv, V domains shown)
VH: EVQLVESGAEVKKPGSSVKVSCKASGGPFRSYAISWVRQAPGQGPEWMGGIIPIFGTTKYAPKFQGRVTITADDFAGTVYMELSSLRSEDTAMYYCAKHMGAQVRETMDVWGKGTTVTVSS
VL: QSVLTQPPSVSAAPGQKVTISCSGSSSNIGNDYVSWYQQLPGTAPKLLIYDNNKRPSGIPDRFSGSKSGTSATLGITGLQTGDEANYYCATWDRRPTAYVVFGGGTKLTVL
B4: CR6261 F54A scFv (scFv, V domains shown)
VH: B3 VH with F55A, A102Y
VL: B3 VL
B5: CR6261 scFv (wild type) (scFv, V domains shown)
VH: B3 VH with A102Y
VL: B3 VL
B6: A66 germline CDR-H2 variant (IIPIFGTA) scFv (scFv, V domains shown)
VH: QVQLVQSGAEVKKPGSSVKVSCKASGGPFSMTAFTWLRQAPGQGLEWMGGIIPIFGTAKYAQKFQGRVTITADESTNTANMELTSLKSEDTAVYYCARTLSSYQPNNDAFAIWGQGTMVTVSS
VL: EIVLTQSPATLSLSPGERATLSCRASQSVSSYLAWYQQKPGQAPRLLIYDASNRATGIPARFSGSGSGTDFTLTISRLEPEDFAVYFCQQYGSSPQFGQGTRLEIK
B7: A66 scFv (wild type) (scFv, V domains shown)
VH: B6 VH with I52S, G56R, A58P
VL: B6 VL
B8: A66 CDR-H2 variant ISPIFGTA (germline CDR-H2 with Ser52 restored) scFv (scFv, V domains shown)
VH: B6 VH with I52S
VL: B6 VL
B9: A66 CDR-H2 variant IIPIFRTA (germline CDR-H2 with Arg55 restored) scFv (scFv, V domains shown)
VH: B6 VH with G56R
VL: B6 VL
B10: F10 CDR-H2 variant ISPIFGTA (germline CDR-H2 with Ser52 restored) scFv (scFv, V domains shown)
VH: B1 VH with M54I, P58A
VL: B1 VL
B11: F10 CDR-H2 variant IIPMFGTA (germline CDR-H2 with Met53 restored) scFv (scFv, V domains shown)
VH: B1 VH with S52I, P58A
VL: B1 VL

biological target: T1, H5VN04 trimeric HA (recombinant hemagglutinin) (influenza A virus (H5VN04), UniProt Q6DQ33); assay: SPR

Binder	Kd
B1	0.1 nM
B2	350 nM
B3	1600 nM
B4	290 nM
B5	0.34 nM

biological target: T1, H5VN04 trimeric HA (recombinant …); assay: SPR; remark: another data set of the same source

Binder	Kd
B6	4.2 nM
B7	0.11 nM
B8	1.1 nM
B9	3.2 nM
B10	1.2 nM
B11	270 nM

biological target: T1, H5VN04 trimeric HA (recombinant …); assay: SPR; remark: another data set of the same source

Binder	koff
B1	3.5e-05 s⁻¹
B2	0.097 s⁻¹
B3	0.027 s⁻¹
B4	0.0073 s⁻¹
B5	0.00012 s⁻¹

biological target: T1, H5VN04 trimeric HA (recombinant …); assay: SPR; remark: another data set of the same source

Binder	koff
B6	0.0049 s⁻¹
B7	5e-05 s⁻¹
B8	0.00023 s⁻¹
B9	0.0034 s⁻¹
B10	0.00025 s⁻¹
